Assay results reported in patent US20160200782A1 (MOERAE MATRIX, published 2016).

Tests used:
Assay in all cases: cell-based or functional assay
MELK(h) = MELK(h) (human, UniProt Q14680 1-340, limits assumed)
Met(D1246H)(h) = Met(D1246H)(h) (human, UniProt P08581-2 974-1408, limits assumed)
Arg(h) = Arg(h) (human, UniProt P42684 38-1182, limits assumed)
Met(Y1248H)(h) = Met(Y1248H)(h) (human, UniProt P08581-2 974-1408, limits assumed)
mTOR(h) = mTOR(h) (human, UniProt P42345 1362-2549)
MuSK(h) = biological target: T1, MuSK(h) (human, UniProt O15146 517-869, limits assumed)
T1 sequence (looked up): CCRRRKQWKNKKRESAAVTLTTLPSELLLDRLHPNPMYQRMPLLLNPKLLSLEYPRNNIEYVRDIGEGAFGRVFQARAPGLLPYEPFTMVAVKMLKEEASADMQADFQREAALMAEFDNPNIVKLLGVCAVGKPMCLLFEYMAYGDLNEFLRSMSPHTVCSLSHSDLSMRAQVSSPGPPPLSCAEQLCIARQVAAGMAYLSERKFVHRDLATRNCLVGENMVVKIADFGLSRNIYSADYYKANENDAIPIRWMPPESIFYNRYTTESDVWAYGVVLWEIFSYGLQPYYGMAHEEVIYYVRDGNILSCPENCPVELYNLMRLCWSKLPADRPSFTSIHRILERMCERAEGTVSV

PAK4(h) = PAK4(h) (human, UniProt O96013 1-591, limits assumed)
Sequence of PAK4(h) (O96013 whole entry): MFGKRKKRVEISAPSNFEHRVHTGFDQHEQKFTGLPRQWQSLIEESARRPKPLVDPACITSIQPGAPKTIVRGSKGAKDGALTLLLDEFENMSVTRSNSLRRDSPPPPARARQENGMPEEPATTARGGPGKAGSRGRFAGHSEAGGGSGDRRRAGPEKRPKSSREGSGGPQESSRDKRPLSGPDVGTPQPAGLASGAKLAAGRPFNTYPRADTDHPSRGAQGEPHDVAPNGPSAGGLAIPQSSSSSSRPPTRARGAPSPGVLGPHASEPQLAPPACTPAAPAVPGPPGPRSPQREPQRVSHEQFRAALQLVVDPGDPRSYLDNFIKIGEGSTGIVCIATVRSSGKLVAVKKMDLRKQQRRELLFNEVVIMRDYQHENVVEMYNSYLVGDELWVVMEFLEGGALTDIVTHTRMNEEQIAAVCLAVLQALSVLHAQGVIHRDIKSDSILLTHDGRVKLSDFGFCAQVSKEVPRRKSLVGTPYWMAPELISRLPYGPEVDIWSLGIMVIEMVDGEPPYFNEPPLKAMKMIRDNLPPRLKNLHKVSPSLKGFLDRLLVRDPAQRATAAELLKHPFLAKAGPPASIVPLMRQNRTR

Pim-3(h) = Pim-3(h) (human, UniProt Q86V86 1-326)
PKCβII(h) = PKCβII(h) (human, UniProt P05771-2 1-673)
Sequence of PKCβII(h) (P05771 other isoform, or with tags, fused parts or gaps limits assumed): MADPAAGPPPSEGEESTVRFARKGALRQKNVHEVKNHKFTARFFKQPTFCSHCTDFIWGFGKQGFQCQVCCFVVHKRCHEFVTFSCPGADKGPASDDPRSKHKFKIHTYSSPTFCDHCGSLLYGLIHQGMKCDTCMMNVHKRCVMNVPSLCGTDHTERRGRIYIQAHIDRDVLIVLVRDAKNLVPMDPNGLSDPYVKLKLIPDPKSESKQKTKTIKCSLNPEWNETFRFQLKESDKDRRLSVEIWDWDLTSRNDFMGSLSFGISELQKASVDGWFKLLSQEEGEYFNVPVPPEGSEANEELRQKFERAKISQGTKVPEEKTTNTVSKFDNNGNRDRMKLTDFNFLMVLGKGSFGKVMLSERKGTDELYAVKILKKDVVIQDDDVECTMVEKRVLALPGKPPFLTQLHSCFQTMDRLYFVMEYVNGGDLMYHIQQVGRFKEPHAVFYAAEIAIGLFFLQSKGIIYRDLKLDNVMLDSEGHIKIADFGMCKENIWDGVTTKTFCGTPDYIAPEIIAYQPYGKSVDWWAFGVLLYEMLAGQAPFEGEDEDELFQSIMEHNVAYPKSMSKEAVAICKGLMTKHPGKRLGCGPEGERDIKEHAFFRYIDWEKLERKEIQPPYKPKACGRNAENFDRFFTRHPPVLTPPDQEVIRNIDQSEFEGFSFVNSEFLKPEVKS

SAPK2a(h) = SAPK2a(h) (human, UniProt Q16539 1-360)
Sequence of SAPK2a(h) (Q16539 whole entry): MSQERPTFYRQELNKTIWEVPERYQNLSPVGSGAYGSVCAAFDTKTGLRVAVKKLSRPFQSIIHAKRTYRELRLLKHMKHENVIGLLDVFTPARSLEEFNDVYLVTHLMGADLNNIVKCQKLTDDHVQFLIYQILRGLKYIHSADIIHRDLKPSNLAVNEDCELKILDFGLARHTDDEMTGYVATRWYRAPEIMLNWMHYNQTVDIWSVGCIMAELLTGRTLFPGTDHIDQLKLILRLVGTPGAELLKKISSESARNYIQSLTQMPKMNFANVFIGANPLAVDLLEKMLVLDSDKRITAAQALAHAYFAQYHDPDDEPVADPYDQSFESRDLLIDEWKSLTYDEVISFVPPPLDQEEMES

SGK(h) = biological target: T2, SGK(h) (human, UniProt O00141 60-431)
T2 sequence (looked up): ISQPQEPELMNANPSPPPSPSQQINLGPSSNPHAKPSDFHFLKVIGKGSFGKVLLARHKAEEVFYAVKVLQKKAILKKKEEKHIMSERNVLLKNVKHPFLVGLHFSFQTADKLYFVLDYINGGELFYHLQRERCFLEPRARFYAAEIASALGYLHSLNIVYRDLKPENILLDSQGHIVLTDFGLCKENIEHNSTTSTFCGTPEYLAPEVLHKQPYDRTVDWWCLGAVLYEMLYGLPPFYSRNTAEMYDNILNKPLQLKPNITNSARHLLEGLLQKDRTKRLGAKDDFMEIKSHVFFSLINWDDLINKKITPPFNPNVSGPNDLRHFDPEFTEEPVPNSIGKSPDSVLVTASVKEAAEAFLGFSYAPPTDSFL

SGK3(h) = biological target: T3, SGK3(h) (human, UniProt Q96BR1 1-496, limits assumed)
T3 sequence (looked up): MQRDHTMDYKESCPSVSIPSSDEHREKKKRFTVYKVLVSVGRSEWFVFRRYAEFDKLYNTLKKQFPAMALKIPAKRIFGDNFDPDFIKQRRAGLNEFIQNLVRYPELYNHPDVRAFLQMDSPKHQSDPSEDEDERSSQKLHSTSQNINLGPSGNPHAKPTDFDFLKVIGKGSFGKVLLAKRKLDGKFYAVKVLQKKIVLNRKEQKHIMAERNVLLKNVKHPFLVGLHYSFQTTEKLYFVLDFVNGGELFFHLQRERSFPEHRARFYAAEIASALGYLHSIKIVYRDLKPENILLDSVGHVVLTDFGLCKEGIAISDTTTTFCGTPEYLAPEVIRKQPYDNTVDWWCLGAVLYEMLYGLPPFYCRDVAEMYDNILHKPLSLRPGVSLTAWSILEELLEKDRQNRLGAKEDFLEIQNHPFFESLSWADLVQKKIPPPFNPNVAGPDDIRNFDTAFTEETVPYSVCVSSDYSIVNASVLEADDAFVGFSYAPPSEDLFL

SRPK1(h) = SRPK1(h) (human, UniProt Q96SB4 1-655, limits assumed)
Sequence of SRPK1(h) (Q96SB4 whole entry): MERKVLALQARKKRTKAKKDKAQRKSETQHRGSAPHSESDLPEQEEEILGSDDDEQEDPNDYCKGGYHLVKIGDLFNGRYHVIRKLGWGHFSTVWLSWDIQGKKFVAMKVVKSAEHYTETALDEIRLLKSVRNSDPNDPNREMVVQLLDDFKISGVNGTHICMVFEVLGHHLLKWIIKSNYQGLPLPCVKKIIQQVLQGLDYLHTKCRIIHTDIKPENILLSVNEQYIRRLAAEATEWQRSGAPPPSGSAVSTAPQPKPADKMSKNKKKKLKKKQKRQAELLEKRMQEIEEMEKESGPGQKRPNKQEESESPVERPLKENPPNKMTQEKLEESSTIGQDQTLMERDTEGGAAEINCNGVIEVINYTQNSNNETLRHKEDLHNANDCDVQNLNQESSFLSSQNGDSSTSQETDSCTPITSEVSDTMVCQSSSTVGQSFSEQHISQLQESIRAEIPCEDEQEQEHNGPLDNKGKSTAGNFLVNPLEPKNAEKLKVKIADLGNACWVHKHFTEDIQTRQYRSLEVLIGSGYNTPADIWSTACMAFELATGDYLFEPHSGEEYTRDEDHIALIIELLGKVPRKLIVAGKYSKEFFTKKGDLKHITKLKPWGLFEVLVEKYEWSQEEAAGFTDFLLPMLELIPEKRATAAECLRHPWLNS

VRK2(h) = VRK2(h) (human, UniProt Q86Y07 1-508, limits assumed)
Sequence of VRK2(h) (Q86Y07 whole entry): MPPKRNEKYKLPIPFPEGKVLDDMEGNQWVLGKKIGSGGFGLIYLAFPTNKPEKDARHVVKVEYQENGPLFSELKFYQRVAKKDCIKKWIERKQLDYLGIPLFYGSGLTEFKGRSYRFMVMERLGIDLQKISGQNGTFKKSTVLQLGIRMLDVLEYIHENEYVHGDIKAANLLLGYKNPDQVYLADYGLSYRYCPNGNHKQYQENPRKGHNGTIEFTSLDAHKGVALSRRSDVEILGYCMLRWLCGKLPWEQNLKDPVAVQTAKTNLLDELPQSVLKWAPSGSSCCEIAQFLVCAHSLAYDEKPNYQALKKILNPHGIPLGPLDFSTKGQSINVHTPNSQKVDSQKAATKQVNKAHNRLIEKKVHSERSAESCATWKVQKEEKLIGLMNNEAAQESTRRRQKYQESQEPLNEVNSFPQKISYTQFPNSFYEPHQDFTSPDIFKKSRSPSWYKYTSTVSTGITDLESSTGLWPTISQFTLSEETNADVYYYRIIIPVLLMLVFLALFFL

EphA3(h) = biological target: T4, EphA3(h) (human, UniProt P29320 566-983, limits assumed)
T4 sequence (looked up): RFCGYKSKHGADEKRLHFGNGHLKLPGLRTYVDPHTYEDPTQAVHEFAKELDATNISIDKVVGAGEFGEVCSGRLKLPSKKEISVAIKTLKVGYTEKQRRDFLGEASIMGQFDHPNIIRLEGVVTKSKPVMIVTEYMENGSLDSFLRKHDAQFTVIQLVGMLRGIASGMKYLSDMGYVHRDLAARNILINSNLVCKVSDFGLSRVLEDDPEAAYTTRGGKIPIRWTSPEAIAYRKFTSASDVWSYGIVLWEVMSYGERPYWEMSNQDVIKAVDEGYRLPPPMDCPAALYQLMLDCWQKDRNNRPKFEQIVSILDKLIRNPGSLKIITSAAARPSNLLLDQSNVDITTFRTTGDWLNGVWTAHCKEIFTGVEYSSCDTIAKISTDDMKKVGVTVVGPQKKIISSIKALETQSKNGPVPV

ErbB4(h) = ErbB4(h) (human, UniProt Q15303 676-1308, limits assumed)
Sequence of ErbB4(h) (Q15303 676-1308 limits assumed): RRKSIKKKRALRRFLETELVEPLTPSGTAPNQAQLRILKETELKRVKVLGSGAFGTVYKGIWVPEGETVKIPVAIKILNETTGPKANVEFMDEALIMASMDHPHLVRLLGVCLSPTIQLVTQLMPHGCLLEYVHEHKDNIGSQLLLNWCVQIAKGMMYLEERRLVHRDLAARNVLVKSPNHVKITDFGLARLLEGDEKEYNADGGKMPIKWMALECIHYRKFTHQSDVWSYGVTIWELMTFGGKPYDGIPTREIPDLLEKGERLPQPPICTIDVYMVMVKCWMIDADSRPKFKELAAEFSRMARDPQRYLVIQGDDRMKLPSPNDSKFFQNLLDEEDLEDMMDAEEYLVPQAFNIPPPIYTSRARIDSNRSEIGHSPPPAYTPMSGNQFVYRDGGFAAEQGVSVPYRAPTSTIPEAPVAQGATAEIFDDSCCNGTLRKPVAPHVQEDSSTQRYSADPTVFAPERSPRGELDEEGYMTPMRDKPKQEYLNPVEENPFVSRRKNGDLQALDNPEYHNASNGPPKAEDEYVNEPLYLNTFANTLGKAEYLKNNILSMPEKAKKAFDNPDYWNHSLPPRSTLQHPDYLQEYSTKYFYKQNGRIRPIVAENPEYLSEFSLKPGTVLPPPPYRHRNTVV

FGFR4(h) = FGFR4(h) (human, UniProt P22455 460-802, limits assumed)
Sequence of FGFR4(h) (P22455 460-802 limits assumed): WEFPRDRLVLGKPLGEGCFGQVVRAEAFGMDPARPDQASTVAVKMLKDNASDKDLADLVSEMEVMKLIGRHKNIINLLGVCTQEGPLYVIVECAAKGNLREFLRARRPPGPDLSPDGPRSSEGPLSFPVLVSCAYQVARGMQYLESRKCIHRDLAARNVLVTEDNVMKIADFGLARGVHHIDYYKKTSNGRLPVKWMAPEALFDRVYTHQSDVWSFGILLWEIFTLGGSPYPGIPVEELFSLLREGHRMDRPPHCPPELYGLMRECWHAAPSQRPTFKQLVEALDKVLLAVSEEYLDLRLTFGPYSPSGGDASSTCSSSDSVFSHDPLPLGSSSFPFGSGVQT

Fgr(h) = Fgr(h) (human, UniProt P09769 1-529, limits assumed)
Further: test concentration or dose not given here.

Sequence of Arg(h) (P42684 38-1182 limits assumed): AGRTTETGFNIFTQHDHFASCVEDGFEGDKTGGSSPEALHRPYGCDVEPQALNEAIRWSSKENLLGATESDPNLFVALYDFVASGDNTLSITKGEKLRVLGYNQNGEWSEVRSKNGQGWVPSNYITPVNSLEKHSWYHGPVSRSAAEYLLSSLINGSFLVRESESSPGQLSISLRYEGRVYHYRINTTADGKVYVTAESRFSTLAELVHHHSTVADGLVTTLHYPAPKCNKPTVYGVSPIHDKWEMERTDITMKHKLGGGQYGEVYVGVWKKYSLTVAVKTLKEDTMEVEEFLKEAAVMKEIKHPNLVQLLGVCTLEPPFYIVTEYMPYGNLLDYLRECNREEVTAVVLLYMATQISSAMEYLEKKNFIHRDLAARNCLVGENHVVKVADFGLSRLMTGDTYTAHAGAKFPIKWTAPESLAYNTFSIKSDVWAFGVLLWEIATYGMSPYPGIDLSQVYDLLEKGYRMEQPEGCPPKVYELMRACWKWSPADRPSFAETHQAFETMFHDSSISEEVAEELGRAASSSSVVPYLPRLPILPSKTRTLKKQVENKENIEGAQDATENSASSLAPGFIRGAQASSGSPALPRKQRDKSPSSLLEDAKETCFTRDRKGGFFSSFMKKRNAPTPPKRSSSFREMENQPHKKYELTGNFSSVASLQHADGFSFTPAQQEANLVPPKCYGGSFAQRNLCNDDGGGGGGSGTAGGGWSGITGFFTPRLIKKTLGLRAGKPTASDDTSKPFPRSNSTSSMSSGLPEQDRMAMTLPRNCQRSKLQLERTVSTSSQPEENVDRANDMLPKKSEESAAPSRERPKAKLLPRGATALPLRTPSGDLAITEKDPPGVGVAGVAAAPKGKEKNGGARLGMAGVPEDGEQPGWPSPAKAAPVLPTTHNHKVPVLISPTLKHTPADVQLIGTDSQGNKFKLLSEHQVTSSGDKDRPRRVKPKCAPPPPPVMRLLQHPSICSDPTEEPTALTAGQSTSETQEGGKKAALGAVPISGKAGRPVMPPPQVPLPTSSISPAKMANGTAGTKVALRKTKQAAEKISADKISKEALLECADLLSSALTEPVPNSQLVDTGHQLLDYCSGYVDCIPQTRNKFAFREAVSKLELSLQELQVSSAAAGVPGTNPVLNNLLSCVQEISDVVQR

## KAFAKLAARLYRKALARQLGVAA [MMI-0400]
MELK(h)
  % activity: 17%
Met(D1246H)(h)
  % activity: 68%
Arg(h)
  % activity: 84%
Met(Y1248H)(h)
  % activity: 63%
mTOR(h)
  % activity: 93%
MuSK(h)
  % activity: 93%
PAK4(h)
  % activity: 89%
Pim-3(h)
  % activity: 80%
PKCβII(h)
  % activity: 75%
SAPK2a(h)
  % activity: 85%
SGK(h)
  % activity: 54%
SGK3(h)
  % activity: 8%
SRPK1(h)
  % activity: 96%
VRK2(h)
  % activity: 185%
EphA3(h)
  % activity: 12%
ErbB4(h)
  % activity: 0%
FGFR4(h)
  % activity: 19%
Fgr(h)
  % activity: 47%

## FAKLAARLYRKALARQLGVAA [MMI-0300]
MELK(h)
  % activity: 16%
Met(D1246H)(h)
  % activity: 125%
Arg(h)
  % activity: 72%
Met(Y1248H)(h)
  % activity: 117%
mTOR(h)
  % activity: 91%
MuSK(h)
  % activity: 93%
PAK4(h)
  % activity: 94%
Pim-3(h)
  % activity: 80%
PKCβII(h)
  % activity: 82%
SAPK2a(h)
  % activity: 90%
SGK(h)
  % activity: 48%
SGK3(h)
  % activity: 10%
SRPK1(h)
  % activity: 90%
VRK2(h)
  % activity: 161%
EphA3(h)
  % activity: 6%
ErbB4(h)
  % activity: 40%
FGFR4(h)
  % activity: 28%
Fgr(h)
  % activity: 60%
